Test results from patent publication US7732133B2, “Screening methods for biologically active ligands” (Chugai Seiyaku Kabushiki Kaisha, priority 2000, dated 2010).

Columns and labels:
[1] = biological target: T1, chimeric TPO receptor (human TPO receptor extracellular domain / mouse G-CSF receptor) in Ba/F3 cell line TPG (Homo sapiens, UniProt P40238); assay: Growth response of chimeric TPO receptor-expressing Ba/F3 cell line TPG (WST-8); format: cell-based; conditions: 72 hours culture, WST-8 absorbance
T1 construct: from the 1st to the 491st amino acid residues; expressed in transfected cells; host or cells: mouse Ba/F3 cells, clone TPG#219 = TPG
T1 sequence (P40238 26-491): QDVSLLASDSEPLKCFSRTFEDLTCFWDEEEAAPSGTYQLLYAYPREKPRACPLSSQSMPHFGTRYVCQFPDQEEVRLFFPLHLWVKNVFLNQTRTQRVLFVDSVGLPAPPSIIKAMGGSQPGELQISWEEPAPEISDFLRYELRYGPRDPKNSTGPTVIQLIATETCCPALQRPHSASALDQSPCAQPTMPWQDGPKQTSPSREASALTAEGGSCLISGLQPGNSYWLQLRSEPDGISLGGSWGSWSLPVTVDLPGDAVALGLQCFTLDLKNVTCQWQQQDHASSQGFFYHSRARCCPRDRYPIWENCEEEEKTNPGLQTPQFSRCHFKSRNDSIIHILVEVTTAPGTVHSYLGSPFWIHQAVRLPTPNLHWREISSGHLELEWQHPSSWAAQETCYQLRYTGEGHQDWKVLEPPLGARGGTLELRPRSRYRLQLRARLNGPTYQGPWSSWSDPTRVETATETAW
Text: A chimeric receptor cDNA was constructed by linking cDNA fragments encoding the extracellular domain (from the 1st to the 491st amino acid residues; Vigon, I. et al. (1992) Proc. Natl. Acad. Sci. USA 89, 5640-5644) of human TPO receptor, and the transmembrane and intracellular domains (from the 602nd to the 813th amino acid residues; Fukunaga, R. et al. (1990) Cell 61, 341-350) of mouse G-CSF receptor. The cDNA was inserted downstream of the EF1α promoter of the mammalian expression vector pCOS-G to construct chimeric receptor-expression vector TG/pCOS-G. TG/pCOS-G was linearized with Pvu I (Takara Shuzo), extracted with phenol and chloroform, and purified by ethanol precipitation.
The linearized expression gene vector was introduced into mouse Ba/F3 cells (purchased from RIKEN; Cell No.: RCB0805) using an electroporation apparatus (Gene Pulser: Bio Rad) The Ba/F3 cells were washed twice with Dulbecco's PBS (hereinafter referred to as PBS), and then were suspended in PBS to give a cell density of about 1×10^7 cells/mL. […]
The cells were washed twice with Media A, and were suspended in Media A to give a cell density of 5×10^4 cells/mL. […] The absorbance at a measurement wavelength of 450 nm and a control wavelength of 655 nm after the 2 hours incubation was measured using microplate reader (Model 3550, Bio Rad).

[2] = system: mixed culture of cell lines GFG, EPG, TPG and parental Ba/F3; assay: Cytokine responses in mixed and individual cell cultures (Example 2); format: cell-based, mouse; conditions: mixed culture of four cell lines (each 4×10^3 cells/well), similar in individual cultures, 72 hours, WST-8; listed as hTPO
Description: Mixed culture of the cell lines GFG, EPG, and TPG, which express human G-CSF, EPO, and TPO chimeric receptors, respectively, and their parental cell line Ba/F3 was conducted and their response to various cytokines was examined.
The cells were washed twice with RPMI1640 media containing 2% fetal bovine serum, and then were suspended in RPMI1640 containing 10% fetal bovine serum. The four cell lines were mixed by adjusting each of the cell lines to 4×10^4 cells/mL (16×10^4 cells/mL in total) for the mixed culture, and, for individual cultures, cells were prepared at 4×10^4 cells/mL. 100 μL each of the cells were independently seeded on a 96-well microtiter plate (flat bottom, Falcon). After adding 100 μL/well each of appropriately diluted cytokines, the cultures were cultured for 72 hours in a CO2 incubator (5% CO2 concentration). After the culture, 10 μL/well WST-8 reagent (Cell Count Reagent SF; Nacalai Tesque) was added, and pre-reaction absorbance at a measurement wavelength of 450 nm and a control wavelength of 655 nm was measured using a microplate reader (Model 3550, Bio Rad). The plate was incubated for two hours in a CO2 incubator (CO2 concentration, 5%), and post-reaction absorbance was measured as above. Data were graphed out taking the cytokine concentrations on the horizontal axis and the amount of changes in absorbance after 2-hour incubation on the vertical axis (FIGS. 18, 19, and 20).

[3] = biological target: T2, chimeric IL-10 receptor (human IL-10Rα and IL-10Rβ / mouse G-CSF receptor) in Ba/F3 cell line 10G (Homo sapiens, UniProt Q08334+Q13651); assay: Growth response of chimeric IL-10 receptor-expressing Ba/F3 cell line 10G (WST-8); format: cell-based; conditions: 72 hours culture, WST-8 absorbance
T2 construct: from the 1st to the 235th amino acid residue; from the 1st to the 220th amino acid residues; expressed in transfected cells; host or cells: mouse Ba/F3 cells co-transfected with pCV-cIL10Rα and pCV-cIL10Rβ, clone 10G#10 = 10G
T2 sequence (Q13651 22-235): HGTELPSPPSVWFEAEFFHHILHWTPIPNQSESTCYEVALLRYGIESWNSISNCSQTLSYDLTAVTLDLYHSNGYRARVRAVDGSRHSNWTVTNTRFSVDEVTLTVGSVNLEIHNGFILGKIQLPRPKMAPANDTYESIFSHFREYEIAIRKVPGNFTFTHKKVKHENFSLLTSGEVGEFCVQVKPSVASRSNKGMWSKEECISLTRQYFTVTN
T2 sequence (Q08334 20-220): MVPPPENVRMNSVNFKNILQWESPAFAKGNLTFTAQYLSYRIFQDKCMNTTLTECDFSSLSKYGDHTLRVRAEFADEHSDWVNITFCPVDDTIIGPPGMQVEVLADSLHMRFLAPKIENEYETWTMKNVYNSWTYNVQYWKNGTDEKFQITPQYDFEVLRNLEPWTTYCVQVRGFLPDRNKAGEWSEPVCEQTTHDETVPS
T2 sequence (P40223 627-837 partner limits assumed): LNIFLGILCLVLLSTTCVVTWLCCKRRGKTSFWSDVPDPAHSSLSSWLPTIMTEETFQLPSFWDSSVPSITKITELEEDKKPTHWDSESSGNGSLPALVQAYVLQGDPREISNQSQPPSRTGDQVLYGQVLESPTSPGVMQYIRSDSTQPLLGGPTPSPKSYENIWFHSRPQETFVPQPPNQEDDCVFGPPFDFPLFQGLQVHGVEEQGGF
Text: Chimeric receptor cDNAs were constructed by linking cDNA fragments encoding the α chain (IL-10Rα) (from the 1st to the 235th amino acid residue; Liu, Y. et al. (1994) J. Immunol. 152, 1821-1829) and the hIL-10R subunit (CRFB4; IL-10Rβ) extracellular domain (from the 1st to the 220th amino acid residues; Lutfalla, G. et al. (1993) Genomics 16, 366-373) of human IL-10 receptor with the transmembrane and intracellular domains (from the 602nd to the 813th amino acid residues; Fukunaga, R. et al. (1990) Cell 61, 341-350) of mouse G-CSF receptor, respectively. […]
The cells were washed twice with Media A, and were suspended in Media A to give a cell density of 5×10^4 cells/mL. […] After the culture, 10 μL/well WST-8 reagent (Cell Count Reagent SF; Nacalai Tesque) was added, and pre-reaction absorbance at a measurement wavelength of 450 nm and a control wavelength of 655 nm was measured using microplate reader (Model 3550, Bio Rad). The plate was incubated for two hours in a CO2 incubator (CO2 concentration, 5%), and post-reaction absorbance was measured as above. […]

concentration at which an evident growth reaction was observed [1] [pg/mL]	concentration at which an evident growth reaction was observed [3] [ng/mL]	Substance	concentration where the response was observed to start [2] [pg/mL]
≥ 100		thrombopoietin [human TPO]	200
	≥ 0.5	human IL-10: human interleukin 10 (Genzyme)	
